Reference: the supplement of paper PMC10567573

B1: FCHSD1 (parent)
chain: LQEPGVFSPTPPQQFQPAGTDQVC
B2: CLCN6 (parent)
chain: VGEIVGIITRHNLTYEFLQARLRQ

Variants of: B1
Experiment: protein stability index of a GFP-peptide fusion (GPS, HEK-293T) (PSI 1-6); higher = more stable
Conditions: c terminus: a fixed tail appended
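Also: lentivirally expressed fusions sorted by FACS into six bins by GFP to DsRed ratio, PSI derived from sequencing read proportions per bin multiplied by bin number.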

Row | Variant | protein stability index
1 | LQEPGVFWPTPPQQFQPAGTDQVC [S8W] | 3.85
2 | LQEPGVFRPTPPQQFQPAGTDQVC [S8R] | 4.57

Variants of: B2
Experiment: as above
Conditions: c terminus: a fixed tail appended

Row | Variant | protein stability index
3 | VGEIVGIITRHNLTYEFLQLRLRQ [A20L] | 2.08
4 | VGEIVGIITRHNLTYEFLQYRLRQ [A20Y] | 1.04
5 | VGEIVGIITRHNLTYEFLQSRLRQ [A20S] | 2.02
6 | VGEIVGIITRHNLTYEFLQIRLRQ [A20I] | 2.56
7 | VGEIVGIITRHNLTYEFLQQRLRQ [A20Q] | 2.04
8 | VGEIVGGITRHNLTYEFLQARLRQ [I7G] | 2.44
9 | VGEIVGAITRHNLTYEFLQARLRQ [I7A] | 1.77
10 | VGEIVGNITRHNLTYEFLQARLRQ [I7N] | 2.18
11 | VGEIVGCITRHNLTYEFLQARLRQ [I7C] | 2.31
12 | VGEIVGPITRHNLTYEFLQARLRQ [I7P] | 2.56
13 | VGEIVGTITRHNLTYEFLQARLRQ [I7T] | 1.73
14 | VGEIVGEITRHNLTYEFLQARLRQ [I7E] | 2.07
15 | VGEIVGYITRHNLTYEFLQARLRQ [I7Y] | 3.15
16 | VGEIVGDITRHNLTYEFLQARLRQ [I7D] | 2.38
17 | VGEIVGQITRHNLTYEFLQARLRQ [I7Q] | 2.72
18 | VGEIVGHITRHNLTYEFLQARLRQ [I7H] | 2.05
19 | VGEIVGLITRHNLTYEFLQARLRQ [I7L] | 2.53
20 | VGEIVGKITRHNLTYEFLQARLRQ [I7K] | 1.7
21 | VGEIVGIITRHNLTYEFLQARLRK [Q24K] | 1.61
22 | VGEIVGIITRHNLTYEFLQARLRE [Q24E] | 3.09
23 | VGEIVGIITRHNLTYEFLQARLRA [Q24A] | 4.07
24 | VGEIVGIITRHNLTYEFLQARLRY [Q24Y] | 2.14
25 | VGEIVGIITRHNLTYEFLQARLRP [Q24P] | 2.15

Row | Variant | protein stability index
26 | VGEIVGIITRHNLTYEFLQARLRC [Q24C] | 3.27
27 | VGEIVGIITRHNLTYEFLQARLRS [Q24S] | 2.53
28 | VGEIVGIITRHNLTYEFLQARLRN [Q24N] | 2.8
29 | VGEIVGIITRHNLTYEFLQARLRR [Q24R] | 1.88
30 | VGEIVGIITRHNLTYEFLQARLRV [Q24V] | 2.87
31 | VGEIVGIITRHNLFYEFLQARLRQ [T14F] | 2.92
32 | VGEIVGIITRHNLLYEFLQARLRQ [T14L] | 2.29
33 | VGEIVGIITRHNLYYEFLQARLRQ [T14Y] | 3.07
34 | VGEIVGIITRHNLAYEFLQARLRQ [T14A] | 3.01
35 | VGEIVGIITRHNLQYEFLQARLRQ [T14Q] | 1.26
36 | VGEIVGIITRHNLVYEFLQARLRQ [T14V] | 2.98
37 | VGEIVGIITRHNLNYEFLQARLRQ [T14N] | 2.03
38 | VGEIVGIITRHNLEYEFLQARLRQ [T14E] | 1.22
39 | VGEIVGIITRHNLTYECLQARLRQ [F17C] | 1.8
40 | VGEIVGIITRHNLTYEHLQARLRQ [F17H] | 1.04
41 | VGEIVGIITRHNLTYEQLQARLRQ [F17Q] | 2.76
42 | VGEIVGIITRHNLTYETLQARLRQ [F17T] | 1.87
43 | VGEIVGIITRHNLTYEGLQARLRQ [F17G] | 3.15
44 | VGEIVGIITRHNLTYEILQARLRQ [F17I] | 2.02
45 | VGEIVGIITRHNLTYESLQARLRQ [F17S] | 2.71
46 | VGEIVGIITRHNLTYEPLQARLRQ [F17P] | 2.11
47 | VGEIVGIITRHNLTYEELQARLRQ [F17E] | 2.01
48 | VGEIVGIITRDNLTYEFLQARLRQ [H11D] | 2.48

Row | Variant | protein stability index
49 | VGEIVGIITRVNLTYEFLQARLRQ [H11V] | 2.32
50 | VGEIVGIITRGNLTYEFLQARLRQ [H11G] | 1.76
51 | VGEIVGIITRNNLTYEFLQARLRQ [H11N] | 4.18
52 | VGEIVGIITRHNLTYEFLQARLVQ [R23V] | 5.95
53 | VGEIVGIITRHNLTYEFLQARLHQ [R23H] | 1.73
54 | VGEIVGIITRHNLTYEFLQARLQQ [R23Q] | 1.69
55 | VGEIVGIITRHNLTYEFLQARLYQ [R23Y] | 4.23
56 | VGEIVGIITRHNLTYEFLQARLPQ [R23P] | 1.86
57 | VGEIVGIITRHNLTYEFLQARLFQ [R23F] | 2.58
58 | VGEIVGIITRHNLTYEFLQARLEQ [R23E] | 1.2
59 | VGEIVGIITRHNLTYEFLQAGLRQ [R21G] | 1.89
60 | VGEIVGIITRHNLTYEFLQADLRQ [R21D] | 2.76
61 | VGEIVGIITRHNLTYEFLQAQLRQ [R21Q] | 2.57
62 | VGEIVGIITRHNLTYEFLQAKLRQ [R21K] | 1.06
63 | VGEIVGIITRHNLTYEFLQAVLRQ [R21V] | 1.67
64 | VGEIVGIITRHNLTYEFLQATLRQ [R21T] | 2.69
65 | VGEIVGIITRHNLTYEFLQAWLRQ [R21W] | 2.19
66 | VGEIVGIITRHNLTYEFLQANLRQ [R21N] | 2.01
67 | VGEIVGIITRHNLTYEFLQAYLRQ [R21Y] | 1.86
68 | VGEIVGIITRHNLTYEFEQARLRQ [L18E] | 3.96
69 | VGEIVGIITRHNLTYEFKQARLRQ [L18K] | 2.67
70 | VGEIVGIITRHNLTYEFFQARLRQ [L18F] | 2.71
71 | VGEIVGIITRHNLTYEFMQARLRQ [L18M] | 2.33

Row | Variant | protein stability index
72 | VGEIVGIITRHNLTYEFIQARLRQ [L18I] | 2.62
73 | VGEIVGIITRHNLTYEFSQARLRQ [L18S] | 1.02
74 | VGEIVGIITRHNLTYEFNQARLRQ [L18N] | 1.6
75 | VGEIVGIITRHNLTYEFDQARLRQ [L18D] | 2.26
76 | VGEIVGIITRHNLTYEFQQARLRQ [L18Q] | 2.07
77 | VGEIVGIITRHNLTYEFPQARLRQ [L18P] | 2.81
78 | VGEIVGIITRHNLTYEFGQARLRQ [L18G] | 1.58
79 | VGEIVGIITRHNLTYEFAQARLRQ [L18A] | 2.67
80 | VGEIVGIITRHNLTYEFRQARLRQ [L18R] | 2.55
81 | VGEIVGIITRHNLTYEFYQARLRQ [L18Y] | 4.04
82 | VGEIVGILTRHNLTYEFLQARLRQ [I8L] | 2.03
83 | VGEIVGIQTRHNLTYEFLQARLRQ [I8Q] | 2.47
84 | VGEIVGIATRHNLTYEFLQARLRQ [I8A] | 1.27
85 | VGEIVGINTRHNLTYEFLQARLRQ [I8N] | 3.2
86 | VGEIVGIYTRHNLTYEFLQARLRQ [I8Y] | 1.21
87 | VGEIVGIRTRHNLTYEFLQARLRQ [I8R] | 2.64
88 | VGEIVGISTRHNLTYEFLQARLRQ [I8S] | 2.65
89 | VGEIVGIGTRHNLTYEFLQARLRQ [I8G] | 2.2
90 | VGEIVGICTRHNLTYEFLQARLRQ [I8C] | 1.16
91 | VGEIVGIETRHNLTYEFLQARLRQ [I8E] | 3.29
92 | VGEIVGIHTRHNLTYEFLQARLRQ [I8H] | 1.79
93 | VGEIVGIITRHNETYEFLQARLRQ [L13E] | 2.18
94 | VGEIVGIITRHNPTYEFLQARLRQ [L13P] | 1.94
